Assays:
[1] = molecular target: MARV GP [change] (Lake Victoria marburgvirus) (UniProt Q1PD50)
[2] = molecular target: SUDV GP [change] (Sudan ebolavirus) (UniProt Q7T9D9)
[3] = molecular target: BDBV GP [change] (Bundibugyo ebolavirus (BDBV), strain 200706291 Uganda); assay: ELISA, coated recombinant GP ΔTM
[4] = molecular target: EBOV GP [change] (Zaire ebolavirus (EBOV), strain Makona); assay: ELISA, coated recombinant GP ΔTM
[5] = molecular target: SUDV GP [change] (Sudan ebolavirus (SUDV), strain Gulu) (UniProt Q7T9D9); assay: ELISA

4G7 (antibody)
EC50 [1]: > 10 µg/mL | EC50 [2]: > 10 µg/mL | EC50 [3]: > 10 µg/mL | EC50 [4]: 0.018 µg/mL

rEBOV-520 LALA
EC50 [5]: 0.377 µg/mL

KZ52 (antibody)
EC50 [1]: > 10 µg/mL | EC50 [2]: > 10 µg/mL | EC50 [3]: > 10 µg/mL | EC50 [4]: 0.014 µg/mL
